From article PMC6933062 (Annals of Laboratory Medicine, 2019) come the findings set out here.

For the experiment, the target named is T1, biotinylated synthetic peptide containing the PDZ-binding motif of cadherin-related 23 ….
T1 peptide: {Biotin-Ttds}-VIMESPLEITEL
The experiment can be described thus: BLI.

Ends that are not written are not given here. * marks the point of attachment. Biotin = O=C1N[C@H]2[C@H](CS[C@H]2CCCCC(=O)*)N1; Ttds = NCCCOCCOCCOCCCNC(=O)CCC(=O)*

B1: wild-type PDZ2 domain of harmonin (domain or fragment)
chain: GGLGSPGNRTTKEKKVFISLVGSRGLGCSISSGPIQKPGIFVSHVKPGSLSAEVGLETGDQIVEVNGIDFTNLDHKEAVNVLKSSRSLTISIVAGAGRE
What is called Kd is the equilibrium constant for the complex coming apart. Lower therefore signals a tighter complex. In turn, B1 had a Kd of 37.6 ± 4.1 µM.

B2: variant PDZ2 domain of harmonin carrying p.Gly223Cys (domain or fragment)
chain: GGLGSPGNRTTKEKKVFISLVGSRGLCCSISSGPIQKPGIFVSHVKPGSLSAEVGLETGDQIVEVNGIDFTNLDHKEAVNVLKSSRSLTISIVAGAGRE
B2 registered a Kd of 621 ± 88 µM. This Kd is about 17-fold higher than that of the molecule before.
